Results: patent US7799901B2, “Modulators of the function of FAS receptors and other proteins” (Yeda Research and Development Co. Ltd., priority 1995, dated 2010)
Entries after “also recorded” stand apart in the source; their conditions may differ.

T1: MORT1 (Homo sapiens, UniProt Q13158)
T1 sequence (Q13158 1-208): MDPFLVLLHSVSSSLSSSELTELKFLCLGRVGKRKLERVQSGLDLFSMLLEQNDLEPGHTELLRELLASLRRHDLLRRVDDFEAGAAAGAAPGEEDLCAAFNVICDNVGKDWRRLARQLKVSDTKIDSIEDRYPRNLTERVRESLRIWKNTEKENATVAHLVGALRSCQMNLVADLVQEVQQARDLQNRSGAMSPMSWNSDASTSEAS

B1: MORT-1: Mediator of Receptor-induced Toxicity; protein binding the intracellular domain of FAS-R, SEQ ID NO:2 (protein)
chain: VNQAPECRFGGGILGPLGKRRDLARASEPRTEGARRAGPQPRPLADPAMDPFLVLLHSVSSSLSSSELTELKFLCLGRVVKRKLERVQSGLDLFSMLLEQNDLEPGHTELLRELLASLRRHDLLRRVDDFEAGAAAGAAPGEEDLCAAFNVICDNVGKDWRRLARQLKVSDTKIDSIEDRYPRNLTERVRESLRIWKNTEKENATVAHLVGALRSCQMNLVADLVQEVQQARDLQNRSGAMSPMSWNSDASTSEAS
B2: MACHβ1: MACH isoform, cDNA SEQ ID NO: 4, amino acid SEQ ID NO: 5; lacks the CED3/ICE homology region (protein)
chain: MDFSRNLYDIGEQLDSEDLASLKFLSLDYIPQRKQEPIKDALMLFQRLQEKRMLEESNLSFLKELLFRINRLDLLITYLNTRKEEMERELQTPGRAQISAYRVMLYQISEEVSRSELRSFKFLLQEEISKCKLDDDMNLLDIFIEMEKRVILGEGKLDILKRVCAQINKSLLKIINDYEEFSKERSSSLEGSPDEFSNDFGQSLPNEKQTSGILSDHQQSQFCKSTGESAQTSQH

What was measured:
MORT1 = biological target: T1, MORT1; assay: Co-immunoprecipitation with co-expressed MORT1 from HeLa cell lysates; assay type: binding; design: expressed in transfected cells; host or cells: HeLa cells; details: HeLa cells; FLAG-tagged MACH, HA-tagged MORT1
Description: It has been shown also to contribute to, though not to suffice in, the self association of MORT-1 (see Example 1). […] To further assess the involvement of the MORT modules in these interactions, deletion mutants of MACHβ1, fused with the FLAG octapeptide (FLAG-MACHβ1), were expressed in HeLa cells and assessed for their binding in vitro to bacterial-produced […] fusion protein (GST-MORT-1). […] FIGS. 9A and 9B show the results (autoradiograms) of the in vitro interaction of MACHβ1 and its deletion mutants with MORT-1. Briefly, 35 [S] metabolically labeled MACHβ1, MACHβ1 fused at its N-terminus to the FLAG octapeptide (FLAG-MACHβ1), C-terminus truncation mutants of FLAG-MACHβ1, and, as a control, luciferase, were produced in transfected HeLa cells. […]
Testing further if MACHα1 can bind to MORT1 also within mammalian cells, MACHα1 or MACHβ1, fused with the FLAG octapeptide was expressed, together with HA epitope-tagged MORT1 molecules. ^35[S] metabolically labeled MACHα1 and MACHβ1 fused at their N-termini to the FLAG octapeptide (FLAG-MACHα1 and β1), and MORT1 fused at its N terminus to the HA epitope (Field et al, 1988) were expressed in HeLa cells. […] The proteins were analyzed by SDS-polyacrylamide gel electrophoresis (12% acrylamide), followed by autoradiography. […]

MACH B = biological target: T2, MACH B (Homo sapiens, UniProt Q14790); assay: Two-hybrid β-galactosidase expression filter assay in SFY526 yeast, DNA-binding domain hybrid MACH B; details: DNA-binding domain hybrid MACH B (ORF-B region)
T2 construct: a construct encoding only the ORF-B (MACH B) region; expressed in transfected cells; host or cells: SFY526 yeast
Description: To isolate proteins interacting with the intracellular domain of the FAS-R, the yeast two-hybrid system was used (Fields and Song, 1989). […] In this system, the genes for the candidate interacting proteins are cloned into separate expression vectors. In one expression vector, the sequence of the one candidate protein is cloned in phase with the sequence of the GAL4 DNA-binding domain to generate a hybrid protein with the GAL4 DNA-binding-domain, and in the other vector, the sequence of the second candidate protein is cloned in phase with the sequence of the GAL4 activation domain to generate a hybrid protein with the GAL4-activation domain. The two hybrid vectors are then co-transformed into a yeast host strain having a lacZ or HIS3 reporter gene under the control of upstream GAL4 binding sites. […]
The yeast two-hybrid test was further applied to evaluate the specificity of binding of MACH to MORT-1, in particular, to define the region in MORT-1 to which MACH binds, as well as to determine which of the MACH ORFs interacts with MORT-1, the procedures being as set forth herein above in Examples 1 and 2. Briefly, various MORT-1 and MACH constructs were prepared for testing the interaction of the proteins encoded by the Gal4 DNA-binding domain and activation domain constructs within transfected SFY526 yeast cells as assessed by the β-galactosidase expression filter assay. […]

Row | Molecule | binding to co-expressed MORT1 (co-immunoprecipitation) (MORT1) | development of color (interaction with DNA-binding domain hybrid) (MACH B)
1 | MACHα1: MACH isoform, cDNA SEQ ID NO: 14, amino acid SEQ ID NO: 7; contains CED3/ICE homology region | co-immunoprecipitated | –
2 | B1 | – | + (“+++” and “+” indicate the development of a strong color within 30 and 90 min. of the assay, respectively)
3 | B2 | bound; also recorded: co-immunoprecipitated | + (“+++” and “+” indicate the development of a strong color within 30 and 90 min. of the assay, respectively)
